We go through 23 molecules from patent US20170129961A1 (Amgen, published 2017).

The chains are these.
T1: human CD70 (human, UniProt P32970 1-193)
T1 construct: also called hu CD70; CD27L
T1 sequence: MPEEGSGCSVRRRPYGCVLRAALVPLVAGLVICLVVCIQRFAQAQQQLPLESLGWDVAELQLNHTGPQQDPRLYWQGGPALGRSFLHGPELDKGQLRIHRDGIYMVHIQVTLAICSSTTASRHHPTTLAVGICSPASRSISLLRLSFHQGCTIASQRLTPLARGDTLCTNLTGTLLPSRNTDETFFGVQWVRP

T2: full-length mouse CD70 with C-terminal V5 tag (mouse, UniProt O55237 1-195)
T2 construct: On transfected CHO cells; also called murine CD70
T2 sequence: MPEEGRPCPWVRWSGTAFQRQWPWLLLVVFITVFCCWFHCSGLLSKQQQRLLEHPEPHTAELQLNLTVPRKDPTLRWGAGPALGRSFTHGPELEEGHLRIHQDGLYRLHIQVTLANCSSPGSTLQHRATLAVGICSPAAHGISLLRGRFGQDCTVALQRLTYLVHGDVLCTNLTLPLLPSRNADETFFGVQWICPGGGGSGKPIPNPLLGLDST

B1: CD70-4 (scFv)
scFv: QVQLVQSGAEVKKPGASVKVSCKASGYTFTSYGISWVRQAPGQGLEWMGWISAYNGYTHYAQKLQGRVTMTTDTSTSTAYMELRSLRSDDTAVYYCARDYGGNDYYGMDVWGQGTTVTVSSGGGGSGGGGSGGGGSQSVLTQPPSASGTPGQRVTISCSGSSSNIGINYVYWYQQLPGTAPKLLIYRSDQRPSGVPDRFSGSKSGTSASLALSGLRSEDEADYYCAAWDDSLSGVVFGGGTKLTVL
notes: As m32
B2: CD70-9 (scFv)
scFv: B1 scFv with G44C, G239C
notes: As m32
B3: CD70-12 (scFv)
scFv: QAQLVESGGGVVQPGRSLRLSCAASGFTFSYYGMHWVRQAPGKCLEWVAVIWYDGSNKYYADSVKGRFTISRDNSKNTLYLQMNSLRAEDTAVYYCARDREMGSRGDFDYWGQGTLVTVSSGGGGSGGGGSGGGGSDIQMTQSPSSLSASVGDRVTITCRASQGINNYLAWFQQKPGKAPKSLIYAVSILQSGVPSKFSGSGSGTDFTLTIGNLQPEDFATYYCQQYNFYPFSFGCGTKVDIK
notes: As m32
B4: CD70-3 (scFv)
scFv: QEQLVESGGGVVQPGRSLRLSCAASGFTFSSYGMHWVRQAPGKGLEWVAVTWYDGSNKYYGDSVKGRFTISRDNSKNTLYLQMNSLRAEDTAVYYCARDLLRGVKGYAMDVWGQGTTVTVSSGGGGSGGGGSGGGGSEIVLTQSPGTLSLSPGERATLSCRASQSLRRIYLAWYQQKPGQAPRLLIYDVFDRATGIPDRFSGGGSGTDFTLTISRLEPEDFAVYYCQQYSDSPFTFGPGTKVDIK
notes: As m32
B5: CD70-10 (scFv)
scFv: QVQLQESGPGLVKPSQTLSLTCTVSGDSIISGGYYWSWIRQHPGKCLEWIGYIFYSGSTDYNPSLKSRVTISVDTSKNQFSLKLSSVTAADTAVYYCARSGYSYALFDHWGQGTLVTVSSGGGGSGGGGSGGGGSDIQMTQSPSSLSASVGDRVTISCRASQFIGRYFNWYQQQPGKAPKVLIYAESSLQSGVPSRFSGSGSGTEFTLTISSLQPEDFARYYCQQSYSTPWTFGCGTKVEIK
notes: As m32
B6: CD70-6 (scFv)
scFv: B5 scFv with W231F
notes: As m32
B7: CD70-5 (scFv)
scFv: B5 scFv with C46G, C235Q
notes: As m32
B8: CD70-7 (scFv)
scFv: QVHLVQSGAEVKKPGASVRVSCKASGYTFTSYYLHWVRQAPGQCLEWMGIVDPSGGSTSYDQKFQGRFTMTRDTSTSTVYMELSSLRSEDTAVYYCARDYGDYVFDYWGQGTLVTVSSGGGGSGGGGSGGGGSQSVLTQPPSASGTPGQRVTISCSGSSSNIGTNTVNWYQQLPGTAPQLLIYINNQRPSGVPDRFSGSKSGTSASLAISGLQSEDEADYYCATWDDSLNGPVVGCGTKLTVL
notes: As m32
B9: CD70-11 (scFv)
scFv: QVQLVESGGGVVQPGRSLRLSCAASGFTFSTYGMHWVRQAPGKCLEWVAVIWYDGSNKYYGDSVKGRFTISRDNSKNTLYLQMNSLRAEDTAVYYCARDNSHYYYGMDVWGQGTTVTVSSGGGGSGGGGSGGGGSQSVLTQPPSVSGAPGQRVTISCTGSSSNIGAGYDVNWYQQFPGTAPKLLIYVNNNRPSGVPDRFSGSTSGTSASLAITGLQAEDEADYYCQSYETSLSASVFGCGTRLTVL
notes: As m32
B10: CD70-2 (scFv)
scFv: QVQLVESGGGVVQPGRSLRLSCAASGFTFSSYGMHWVRQAPGKGLEWVAVIWYDGSDKYFADSVKGRFTISRDNSKNTLYLQMNSLRAEDTAVYYCARDGIAGARYVYFDYWGQGTLVTVSSGGGGSGGGGSGGGGSDIQMTQSPSSLSASVGDRVTITCRASQGISNYLAWFQQKPGKAPKSLIYAASSLQGGVPSKFSGSGSGTDFTLTISSLQPEDFATYYCQQYYNYPFTFGPGTTVDIK
B11: CD70-8 (scFv)
scFv: B10 scFv with G44C, P237C
B12: CD70-1 (scFv)
scFv: QVQLVESGGGVVQPGRSLRLSCAASGFTFSTYGMHWVRQAPGKGLEWVAVIWYDGSNKYYGDSVKGRFTISRDNSKNTLYLQMNSLRAEDTAVYYCARDNSHYYYGMDVWGQGTTVTVSSGGGGSGGGGSGGGGSQSVLTQPPSVSGAPGQRVTISCTGSSSNIGAGYDVNWYQQFPGTAPKLLIYVNNNRPSGVPDRFSGSTSGTSASLAITGLQAEDEADYYCQSYDTSLSASVFGGGTRLTVLS
B13: CD70-14 (scFv)
scFv: EVQLLESGGGLVQPGGSLKLSCAASGFTFSIYAMSWVRQAPGKGLEWVSAISGSGGSTFYADSVKGRFTISRDNSKNTLYLQMNSLRAEDTAVYYCAKHDYSNYPYFDYWGQGTLVTVSSGGGGSGGGGSGGGGSEIVLTQSPGTLSLSPGERATLSCRASQSVRSSYLAWYQQKPGQAPRLLIYGASSRATGIPDRFSGSGSGTDFTLTISRLEPEDFAVYYCQQYGDLPFTFGPGTKLEIK
notes: As m32
B14: CD70-23 (scFv)
scFv: B13 scFv with K19R, I31V, A50T, G53D, S85R, K98R, P105A, L240V
notes: As m32
B15: CD70-24 (scFv)
scFv: B13 scFv with V12A, K19R, I31S, Y95F, L240V
notes: As m32
B16: CD70-21 (scFv)
scFv: B13 scFv with L11M, K19R, I31T, S57R, K65E, S167T, Y223S
notes: As m32
B17: CD70-19 (scFv)
scFv: B13 scFv with K19R, I31T, Y80S
notes: As m32
B18: CD70-27 (scFv)
scFv: B13 scFv with K19R, I31T, S57G, V164I, S167N, D229S, L230S, L240V
notes: As m32
B19: CD70-28 (scFv)
scFv: EVQLLESGGGLVQPGGSLRLSCAASGFTFSTYAMSWVRQAPGKGLEWVSLISGSGGRTYYADSVKGRFTISRDNSKNTLYLQMNSLRAEDTAVYYCAKHDYSNYPYFDYWGQGTLVTVSSGGGGSGGGGSGGGGSEIVLTQSPGTLSLSPGERATLSCRASQSVRSNYLAWYQQKPGQAPRLLIYGASNRATGIPDRFSGSGSGTDFTLTISRLEPEDFAVYSCQQYGISPPTFGGGTKVEIK
notes: As m32
B20: CD70-18 (scFv)
scFv: B19 scFv with T31S, Y59H, N167T, G186D, N189S, S223F, I229S, V240L
notes: As m32
B21: CD70-16 (scFv)
scFv: B13 scFv with L11M, K19R, I31S, S57R, K65E, V164I
notes: As m32
B22: CD70-25 (scFv)
scFv: B13 scFv with L11M, K19R, I31S, S57R, K65E, S167N, L240V
notes: As m32
B23: CD70-13 (scFv)
scFv: EVQLLESGGGLVQPGGSLRLSCAASGFTFSSYAMSWVRQAPGKGLEWVSVISGSGGRPNYADSVKGRFTISRDNSKNTLYLQMNSLRDEDTAVYYCAKVDYSNYLFFDYWGQGTLVTVSSGGGGSGGGGSGGGGSEIVLTQSPGTLSLSPGEGATLSCRAGQSVRSSYLGWYQQKPGQAPRLLIYGASSRATGIPDRFSGSGSGTDFTLTISRLEPEDFAVYYCQQYGYSPPTFGGGTKLEIK

Substitutions are numbered along the chain they refer to.

The first experiment addresses T1, human CD70. Put plainly: FACS on CHO cells, periplasmic scFv.
Method: (§1) All antibodies were diluted in PBS/1.5% FCS. As negative control, cells were incubated with PBS/2% FCS instead of the periplasmic extract. The samples were measured by flow cytometry.
B1: the binding result is recorded as “binds”.

For the molecule B2, the binding result is listed as “binds”.

As for B3, the binding result is recorded as “binds”.

For B4, the binding result is given as “binds”.

With B5, the binding result is recorded as “binds”.

Take B6: the binding result is reported as “binds”.

B7: the binding result was “binds”.

With B8, the binding result is “binds”.

Turning to B9, the binding result is given as “binds”.

As to B10, the binding result is “binds”.

In the case of B11, the binding result is “binds”.

Consider B12, for which the binding result is reported as “binds”.

As to B13, the binding result was “binds”.

Consider B14, for which the binding result is reported as “binds”.

For B15, the binding result is “binds”.

As to B16, the binding result is on record as “binds”.

Take B17: the binding result was “binds”.

As for B18, the binding result is “binds”.

Regarding B19, the binding result is “binds”.

Consider B20, for which the binding result is reported as “binds”.

Turning to B21, the binding result is “binds”.

Consider B22, for which the binding result is on record as “binds”.

With B23, the binding result is listed as “binds”.

Another experiment addresses T2, full-length mouse CD70 with C-terminal …. Put plainly: FACS on CHO cells, periplasmic scFv.
Method: as §1
For the molecule B1, the binding result is listed as “no binding”.

For B2, the binding result is reported as “no binding”.

Turning to B3, the binding result was “no binding”.

As for B4, the binding result was “no binding”.

Turning to B5, the binding result was “no binding”.

As for B6, the binding result is “no binding”.

As for B7, the binding result is “no binding”.

Consider B8, for which the binding result is “no binding”.

On to B9, for which the binding result is “no binding”.

Turning to B10, the binding result is reported as “no binding”.

For B11, the binding result was “no binding”.

Regarding B12, the binding result is given as “no binding”.

Take B13: the binding result is “no binding”.

Consider B14, for which the binding result was “no binding”.

As for B15, the binding result is on record as “no binding”.

As to B16, the binding result is on record as “no binding”.

As for B17, the binding result was “no binding”.

In the case of B18, the binding result is “no binding”.

With B19, the binding result is given as “no binding”.

Consider B20, for which the binding result is reported as “no binding”.

In the case of B21, the binding result is reported as “no binding”.

With B22, the binding result is given as “no binding”.

With B23, the binding result is reported as “no binding”.
